Measurements published in patent US12606817B2, “Methods of creating and screening DNA-encoded libraries” (X-Chem, Inc., priority 2009, dated 2026).

Experiment: solubility of headpiece in organic solvent (DMF)
Assay type: physicochemical
Conditions: DMF/water reaction mixture
Procedure: In order to prepare a “library of 1,” a model compound, 5-(4,6-dichlorotriazinyl-aminofluorescein) (DTAF; Anaspec) (FIG. 12), was coupled to the amino group of HP-1. DTAF structurally represents a trichlorotriazine scaffold with one amino compound coupled. To form a library, trichlorotriazine scaffolds can be derivatized with a diversity of building blocks at each of the three chlorine positions. DTAF also provides a fluorescent label to the model library. The reaction (10 μl) was set up as follows. To 5 μl of 400 μM HP-1 dissolved in water, 2 μl of 750 mM borate buffer, pH 9.5, and 1 μl of DMF were added. DTAF was dissolved in DMF to 50 mM and 2 μl was added to the reaction. Final concentrations of the HP-1 and DTAF were 200 μM and 10 mM, respectively, thus generating a 50-fold excess of DTAF. The final DMF concentration was 30%. […] The reaction was allowed to proceed at 4° C. for 16-20 hours. The reaction mixture was then diluted with water to 30-50 μl and desalted on a Zeba spin column (Pierce). No further purification was completed at this point.

## HP-1: hairpin oligonucleotide headpiece (SEQ ID NO: 51) with amino-PEG2000 linker on C5-amino-modified dT (DNA TCCTGGCTGAGGCGAGAGTTTTTCTCTCGCCTCAGCCAGGACC; amino-PEG2000 linker on C5-amino-modified dT; modified_base (21)..(21) dT-C6-NH)
  stayed soluble in up to % DMF: up to 90 % DMF
